Publication PMC2148169 (The Journal of Cell Biology, 1998)

Target: the molecule itself
Assay: SEC

B1: recombinant GST-Vps5p expressed in bacteria (natural protein)
chain: LEAPVWDELNHEGDKTQSLVSNSIESIGQISTNEERKDNELLETTASFADKIDLDSAPEWKDPGLSVAGNPQLEEHDNSKADDLINSLAPEQDPIADLKNSTTQFIATRESGGALFTGNANSPLVFDDTIYDANTSPNTSKSISGRRSGKPRILFDSARAQRNSKRNHSLKAKRTTASDDTIKTPFTDPLKKAEKENEFVEEPLDDRNERRENNEGKFTASVEKNILEQVDRPLYNLPQTGANISSPAEVEENSEKFGKTKIGSKVPPTEKAVAFKVEVKDPVKVGELTSIHVEYTVISESSLLELKYAQVSRRYRDFRWLYRQLQNNHWGKVIPPPPEKQSVGSFKENFIENRRFQMESMLKKICQDPVLQKDKDFLLFLTSDDFSSESKKRAFLTGSGAINDSNDLSEVRISEIQLLGAEDAAEVLKNGGIDAESHKGFMSISFSSLPKYNEADEFFIEKKQKIDELEDNLKKLSKSLEMVDTSRNTLAASTEEFSSMVETLASLNVSEPNSELLNNFADVHKSIKSSLERSSLQETLTMGVMLDDYIRSLASVKAIFNQRSKLGYFLVVIENDMNKKHSQLGKLGQNIHSEKFREMRKEFQTLERRYNLTKKQWQAVGDKIKDEFQGFSTDKIREFRNGMEISLEAAIESQKECIELWETFYQTNL
  binding result: binds
